# Columns and labels:
# Assay in all cases: AUC
# [1] = target: human nectin-1 ectodomain (D1-D3) (human) (UniProt Q15223)
# [2] = target: human nectin-3 ectodomain (D1-D3) (human) (UniProt Q9NQS3)
# [3] = target: mouse nectin-3 ectodomain (D1-D3 with part of the stalk) (mouse) (UniProt Q9JLB9)
# Sequence of human nectin-3 ectodomain (D1-D3) (Q9NQS3 58-359): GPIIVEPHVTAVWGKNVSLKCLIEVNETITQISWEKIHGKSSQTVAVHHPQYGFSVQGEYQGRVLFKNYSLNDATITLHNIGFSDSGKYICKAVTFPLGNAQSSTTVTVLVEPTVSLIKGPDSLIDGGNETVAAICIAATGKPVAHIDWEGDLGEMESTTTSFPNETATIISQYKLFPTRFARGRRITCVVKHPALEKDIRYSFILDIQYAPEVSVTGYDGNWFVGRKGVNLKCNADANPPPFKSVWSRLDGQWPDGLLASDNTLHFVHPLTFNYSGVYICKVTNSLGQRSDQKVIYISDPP
# Sequence of mouse nectin-3 ectodomain (D1-D3 with part of the stalk) (Q9JLB9 58-401): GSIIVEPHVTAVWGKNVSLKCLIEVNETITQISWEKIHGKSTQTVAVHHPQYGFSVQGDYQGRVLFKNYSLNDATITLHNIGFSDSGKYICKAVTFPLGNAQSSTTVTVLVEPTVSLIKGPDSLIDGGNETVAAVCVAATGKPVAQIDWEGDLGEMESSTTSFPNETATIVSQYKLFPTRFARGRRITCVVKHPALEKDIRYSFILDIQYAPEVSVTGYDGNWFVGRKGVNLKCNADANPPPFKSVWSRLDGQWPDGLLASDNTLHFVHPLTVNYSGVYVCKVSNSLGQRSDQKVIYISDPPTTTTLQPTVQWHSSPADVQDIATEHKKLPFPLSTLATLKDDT
# Sequence of human nectin-1 ectodomain (D1-D3) (human) (Q15223 31-337): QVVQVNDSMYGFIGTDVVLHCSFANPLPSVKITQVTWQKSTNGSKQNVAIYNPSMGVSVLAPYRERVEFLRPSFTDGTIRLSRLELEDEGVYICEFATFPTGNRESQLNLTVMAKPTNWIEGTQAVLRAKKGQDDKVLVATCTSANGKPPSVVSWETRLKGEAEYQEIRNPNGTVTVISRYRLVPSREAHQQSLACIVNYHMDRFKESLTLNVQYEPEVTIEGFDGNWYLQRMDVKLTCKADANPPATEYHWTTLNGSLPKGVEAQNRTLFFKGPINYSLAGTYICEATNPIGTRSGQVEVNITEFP
Kd [3] [µM],stoichiometry N [3],Substance,stoichiometry N [1],Kd [2] [µM],stoichiometry N [2]
–,–,human nectin-3 ectodomain (D1-D3) (from UniProt Q9NQS3 58-359) (domain or fragment),1,228,2
122,2,mouse nectin-3 ectodomain (D1-D3 with part of the stalk) (from UniProt Q9JLB9 58-401) (domain or fragment),–,–,–

# Source: article PMC3443293
